Assay [1] addresses T1, human neonatal Fc receptor (hFcRn) (human, UniProt P55899 24-290; P61769 21-119).
T1 construct: Biotinylated in the ELISA, Octet and yeast assays; also called human FcRn; huFcRn
Kind of assay: SPR competition pH 5.5.

The target in assay [2] is T1, human neonatal Fc receptor (hFcRn). Kind of assay: phage ELISA pH 6.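 Further: higher score means stronger binding and above about 3 to 5 exceeds background.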
Assay [3] shares this target. Kind of assay: SPR competition pH 5.5. The method, then:
(§1) Binding of variant Fc-fragments to human and cynomolgus monkey FcRn was tested using a BIAcore® T100 analysis system (GE Healthcare Bio-Sciences AB Private Limited Liability Company, Uppsala, Sweden) at both pH 5.5 and pH 7.4. The test consisted of incubating various concentrations of the variant Fc-fragments or control Fc-fragments with a fixed amount of human or cynomolgus monkey FcRn under binding conditions and subsequently measuring the amount of free, unbound FcRn in these mixtures by binding to a surface (in a flow cell of a CM5 (Biacore) chip) on which an Fc-fragment was immobilized. […] Thus, the amount of unbound FcRn in the mixture was quantitatively ascertained by surface plasmon resonance through use of the BIAcore® T100 analysis system. […] Initially, a group of 23 variant-Fc-fragments (Fc-5-1 being considered a control) identified in the experiments described above were tested for binding to human FcRn.
(§2) To obtain a reasonable signal for the different molecules and conditions tested, different assay conditions were used. For assays at pH 5.5, 10 nM of human or cynomolgus monkey FcRn was mixed with serial dilutions of the variant and control Fc-fragments being tested (which ranged from 0.1˜2,000 nM) and incubated for 1 hour at room temperature in 10 mM sodium acetate, pH 5.5, 150 mM NaCl, 0.005% P20, 0.1 mg/mL BSA. As positive controls, […] human and cynomolgus monkey FcRn were each incubated in the same solution, for the same time, and at the same temperature described immediately above, but without an added Fc-fragment.
This is another data set of the same source.

The target in assay [4] is T2, cynomolgus monkey FcRn (cynomolgus monkey, UniProt Q8SPV9 24-297; Q8SPW0 21-119, limits assumed).
T2 construct: also called Cynomolgus FcRn
Nature of the assay: SPR competition pH 5.5. The method, then:
as §1, §2

Assay [5] addresses T1, human neonatal Fc receptor (hFcRn). Kind of assay: phage ELISA pH 7.4.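 Further: higher score means stronger binding and above about 3 to 5 exceeds background.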

Like-named read-outs stand apart in the source and are kept apart here.

T1 sequence (P55899 24-290 limits assumed, chain 1 of 2): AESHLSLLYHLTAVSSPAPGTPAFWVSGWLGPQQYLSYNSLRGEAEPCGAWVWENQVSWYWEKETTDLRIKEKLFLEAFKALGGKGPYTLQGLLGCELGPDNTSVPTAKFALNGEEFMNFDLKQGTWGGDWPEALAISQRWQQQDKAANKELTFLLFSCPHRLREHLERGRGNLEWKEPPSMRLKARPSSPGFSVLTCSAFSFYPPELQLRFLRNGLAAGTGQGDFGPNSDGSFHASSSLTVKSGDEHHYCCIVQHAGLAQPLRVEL
T1 sequence (P61769 21-119 limits assumed, chain 2 of 2): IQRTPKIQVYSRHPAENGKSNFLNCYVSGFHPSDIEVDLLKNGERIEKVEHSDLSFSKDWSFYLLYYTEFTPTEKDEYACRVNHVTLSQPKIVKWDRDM
T2 sequence (Q8SPV9 24-297 limits assumed, chain 1 of 2): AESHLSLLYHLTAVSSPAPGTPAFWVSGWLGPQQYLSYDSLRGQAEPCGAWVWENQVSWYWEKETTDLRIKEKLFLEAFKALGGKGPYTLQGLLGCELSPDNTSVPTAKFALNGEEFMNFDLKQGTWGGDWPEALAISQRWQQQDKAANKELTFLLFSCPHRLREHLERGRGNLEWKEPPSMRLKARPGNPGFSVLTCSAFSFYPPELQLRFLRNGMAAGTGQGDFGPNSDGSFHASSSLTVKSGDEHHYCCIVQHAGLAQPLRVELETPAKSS
T2 sequence (Q8SPW0 21-119 limits assumed, chain 2 of 2): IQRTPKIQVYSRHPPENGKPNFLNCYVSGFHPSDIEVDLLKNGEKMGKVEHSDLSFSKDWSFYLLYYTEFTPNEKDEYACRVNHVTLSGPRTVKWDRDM

B1: variant Fc-fragment Fc-5-106-M4Q (other)
chain: EPKSCDKTHTCPPCPAPELLGGPSVFLFPPKPKDTLMISRTPEVTCVVVDVSHEDPEVKFNWYVDGVEVHNAKTKPREEQYNSTYRVVSVLTVLHQDWLNGKEYKCKVSNKALPAPIEKTISKAKGQPREPQVYTLPPSRDELTKNQVSLTCLVKGFYPSDIAVEWESNGGCVFNQFNCGGGQPENNYKTTPPVLDSDGSFFLYSKLTVDKSRWQQGNVFSCSVMHEALHNHYTQKSLSLSPGK
As to B1, the EC50 in assay [1] stood at 34 nM.

B2: variant Fc-fragment Fc-5-104 (other)
chain: EPKSCDKTHTCPPCPAPELLGGPSVFLFPPKPKDTLMISRTPEVTCVVVDVSHEDPEVKFNWYVDGVEVHNAKTKPREEQYNSTYRVVSVLTVLHQDWLNGKEYKCKVSNKALPAPIEKTISKAKGQPREPQVYTLPPSRDELTKNQVSLTCLVKGFYPSDIAVEWESNGGCGHEYMWCGGGQPENNYKTTPPVLDSDGSFFLYSKLTVDKSRWQQGNVFSCSVMHEALHNHYTQKSLSLSPGK
notes: soluble elsewhere
B2 displayed an ELISA score in assay [2] of 82.4. Further, the EC50 in assay [3] turned out to be 15 nM; in assay [4], 16 nM.

B3: variant Fc-fragment Fc-5-106-M4N (other)
chain: EPKSCDKTHTCPPCPAPELLGGPSVFLFPPKPKDTLMISRTPEVTCVVVDVSHEDPEVKFNWYVDGVEVHNAKTKPREEQYNSTYRVVSVLTVLHQDWLNGKEYKCKVSNKALPAPIEKTISKAKGQPREPQVYTLPPSRDELTKNQVSLTCLVKGFYPSDIAVEWESNGGCVFNNFNCGGGQPENNYKTTPPVLDSDGSFFLYSKLTVDKSRWQQGNVFSCSVMHEALHNHYTQKSLSLSPGK
In turn, B3 came in with an EC50 in assay [1] of 100 nM.

B4: variant Fc-fragment Fc-5-106-M4S (other)
chain: EPKSCDKTHTCPPCPAPELLGGPSVFLFPPKPKDTLMISRTPEVTCVVVDVSHEDPEVKFNWYVDGVEVHNAKTKPREEQYNSTYRVVSVLTVLHQDWLNGKEYKCKVSNKALPAPIEKTISKAKGQPREPQVYTLPPSRDELTKNQVSLTCLVKGFYPSDIAVEWESNGGCVFNSFNCGGGQPENNYKTTPPVLDSDGSFFLYSKLTVDKSRWQQGNVFSCSVMHEALHNHYTQKSLSLSPGK
B4 registered a 50% effective concentration (EC50) in assay [1] of 58 nM.

B5: variant Fc-fragment Fc-5-69-W1F (other)
chain: EPKSCDKTHTCPPCPAPELLGGPSVFLFPPKPKDTLMISRTPEVTCVVVDVSHEDPEVKFNWYVDGVEVHNAKTKPREEQYNSTYRVVSVLTVLHQDWLNGKEYKCKVSNKALPAPIEKTISKAKGQPREPQVYTLPPSRDELTKNQVSLTCLVKGFYPSDIAVEWESNGGCFPLQDYCGGGQPENNYKTTPPVLDSDGSFFLYSKLTVDKSRWQQGNVFSCSVMHEALHNHYTQKSLSLSPGK
notes: also called Fc-5-69-WIF
In assay [1], B5 had an EC50 of 57 nM.

B6: variant Fc-fragment Fc-5-51 (other)
chain: EPKSCDKTHTCPPCPAPELLGGPSVFLFPPKPKDTLMISRTPEVTCVVVDVSHEDPEVKFNWYVDGVEVHNAKTKPREEQYNSTYRVVSVLTVLHQDWLNGKEYKCKVSNKALPAPIEKTISKAKGQPREPQVYTLPPSRDELTKNQVSLTCLVKGFYPSDIAVEWESNGGCHLPFAVCGGGQPENNYKTTPPVLDSDGSFFLYSKLTVDKSRWQQGNVFSCSVMHEALHNHYTQKSLSLSPGK
notes: soluble elsewhere
As to B6, the ELISA score in assay [2] was determined as 82.5; in assay [5], 0.4. Moreover, the results for the EC50 in assay [3] and in assay [4] were 16 nM and 21 nM, respectively.

B7: variant Fc-fragment Fc-5-99 (other)
chain: EPKSCDKTHTCPPCPAPELLGGPSVFLFPPKPKDTLMISRTPEVTCVVVDVSHEDPEVKFNWYVDGVEVHNAKTKPREEQYNSTYRVVSVLTVLHQDWLNGKEYKCKVSNKALPAPIEKTISKAKGQPREPQVYTLPPSRDELTKNQVSLTCLVKGFYPSDIAVEWESNGGCYITQKLCGGGQPENNYKTTPPVLDSDGSFFLYSKLTVDKSRWQQGNVFSCSVMHEALHNHYTQKSLSLSPGK
notes: library L5 isolate
For B7, the results for the EC50 in assay [3] and in assay [4] were 15 nM and 16 nM, respectively.

B8: variant Fc-fragment Fc-5-69-W1Y (other)
chain: EPKSCDKTHTCPPCPAPELLGGPSVFLFPPKPKDTLMISRTPEVTCVVVDVSHEDPEVKFNWYVDGVEVHNAKTKPREEQYNSTYRVVSVLTVLHQDWLNGKEYKCKVSNKALPAPIEKTISKAKGQPREPQVYTLPPSRDELTKNQVSLTCLVKGFYPSDIAVEWESNGGCYPLQDYCGGGQPENNYKTTPPVLDSDGSFFLYSKLTVDKSRWQQGNVFSCSVMHEALHNHYTQKSLSLSPGK
notes: also called Fc-5-69-WIY
B8 gave an EC50 in assay [1] of 140 nM.

B9: variant Fc-fragment Fc-5-112 (other)
chain: EPKSCDKTHTCPPCPAPELLGGPSVFLFPPKPKDTLMISRTPEVTCVVVDVSHEDPEVKFNWYVDGVEVHNAKTKPREEQYNSTYRVVSVLTVLHQDWLNGKEYKCKVSNKALPAPIEKTISKAKGQPREPQVYTLPPSRDELTKNQVSLTCLVKGFYPSDIAVEWESNGGCALYPTNCGGGQPENNYKTTPPVLDSDGSFFLYSKLTVDKSRWQQGNVFSCSVMHEALHNHYTQKSLSLSPGK
notes: soluble elsewhere
For B9, the ELISA score was 62.7 in assay [2] and 0.4 in assay [5]. For the same molecule, the EC50 in assay [3] was found to be 46 nM; in assay [4] it was 49 nM.

B10: variant Fc-fragment Fc-5-113 (other)
chain: EPKSCDKTHTCPPCPAPELLGGPSVFLFPPKPKDTLMISRTPEVTCVVVDVSHEDPEVKFNWYVDGVEVHNAKTKPREEQYNSTYRVVSVLTVLHQDWLNGKEYKCKVSNKALPAPIEKTISKAKGQPREPQVYTLPPSRDELTKNQVSLTCLVKGFYPSDIAVEWESNGGCQGMWTWCGGGQPENNYKTTPPVLDSDGSFFLYSKLTVDKSRWQQGNVFSCSVMHEALHNHYTQKSLSLSPGK
notes: soluble elsewhere
Turning to B10, the ELISA score in assay [2] was determined as 56.1; in assay [5] it was 0.7. Moreover, the values for the EC50 in assay [3] and in assay [4] were 20 nM and 27 nM, respectively.

B11: variant Fc-fragment Fc-5-106-M4H (other)
chain: EPKSCDKTHTCPPCPAPELLGGPSVFLFPPKPKDTLMISRTPEVTCVVVDVSHEDPEVKFNWYVDGVEVHNAKTKPREEQYNSTYRVVSVLTVLHQDWLNGKEYKCKVSNKALPAPIEKTISKAKGQPREPQVYTLPPSRDELTKNQVSLTCLVKGFYPSDIAVEWESNGGCVFNHFNCGGGQPENNYKTTPPVLDSDGSFFLYSKLTVDKSRWQQGNVFSCSVMHEALHNHYTQKSLSLSPGK
B11 gave an EC50 in assay [1] of 100 nM.

B12: variant Fc-fragment Fc-5-69 (other)
chain: EPKSCDKTHTCPPCPAPELLGGPSVFLFPPKPKDTLMISRTPEVTCVVVDVSHEDPEVKFNWYVDGVEVHNAKTKPREEQYNSTYRVVSVLTVLHQDWLNGKEYKCKVSNKALPAPIEKTISKAKGQPREPQVYTLPPSRDELTKNQVSLTCLVKGFYPSDIAVEWESNGGCWPLQDYCGGGQPENNYKTTPPVLDSDGSFFLYSKLTVDKSRWQQGNVFSCSVMHEALHNHYTQKSLSLSPGK
notes: soluble elsewhere
Consider B12, for which the ELISA score is 76.7 in assay [2] and 0.6 in assay [5]. Also, the EC50 worked out at 18 nM in assay [4] and 20 nM in assay [1].

B13: variant Fc-fragment Fc-5-106-M4A (other)
chain: EPKSCDKTHTCPPCPAPELLGGPSVFLFPPKPKDTLMISRTPEVTCVVVDVSHEDPEVKFNWYVDGVEVHNAKTKPREEQYNSTYRVVSVLTVLHQDWLNGKEYKCKVSNKALPAPIEKTISKAKGQPREPQVYTLPPSRDELTKNQVSLTCLVKGFYPSDIAVEWESNGGCVFNAFNCGGGQPENNYKTTPPVLDSDGSFFLYSKLTVDKSRWQQGNVFSCSVMHEALHNHYTQKSLSLSPGK
Molecule B13 gave an EC50 in assay [1] of 27 nM.

B14: variant Fc-fragment Fc-5-106-M4G (other)
chain: EPKSCDKTHTCPPCPAPELLGGPSVFLFPPKPKDTLMISRTPEVTCVVVDVSHEDPEVKFNWYVDGVEVHNAKTKPREEQYNSTYRVVSVLTVLHQDWLNGKEYKCKVSNKALPAPIEKTISKAKGQPREPQVYTLPPSRDELTKNQVSLTCLVKGFYPSDIAVEWESNGGCVFNGFNCGGGQPENNYKTTPPVLDSDGSFFLYSKLTVDKSRWQQGNVFSCSVMHEALHNHYTQKSLSLSPGK
For B14, in assay [1], the concentration giving a half-maximal response (EC50) amounted to 100 nM.
